Data: patent US20050282743A1, “Molecular interactions in cells” (Arbor Vita Corporation, priority 2001, published 2005)
Ends that are not written are not given here. * marks the point of attachment. Biotin = O=C1N[C@H]2[C@H](CS[C@H]2CCCCC(=O)*)N1

Experiments:
Assay in all cases: G' assay (10 uM PL peptide), results of TABLE 7 and TABLE 12
Assay type in all cases: binding
[1] = target: T1, PDZ protein (GST-PDZ fusion) (Homo sapiens, UniProt Q02410); conditions: PDZ Mint 1, PDZ Domain 1, 2
T1 construct: made in house; host or cells: E. coli (DH5alpha, BL21 or JM109)
T1 sequence (Q02410 1-837): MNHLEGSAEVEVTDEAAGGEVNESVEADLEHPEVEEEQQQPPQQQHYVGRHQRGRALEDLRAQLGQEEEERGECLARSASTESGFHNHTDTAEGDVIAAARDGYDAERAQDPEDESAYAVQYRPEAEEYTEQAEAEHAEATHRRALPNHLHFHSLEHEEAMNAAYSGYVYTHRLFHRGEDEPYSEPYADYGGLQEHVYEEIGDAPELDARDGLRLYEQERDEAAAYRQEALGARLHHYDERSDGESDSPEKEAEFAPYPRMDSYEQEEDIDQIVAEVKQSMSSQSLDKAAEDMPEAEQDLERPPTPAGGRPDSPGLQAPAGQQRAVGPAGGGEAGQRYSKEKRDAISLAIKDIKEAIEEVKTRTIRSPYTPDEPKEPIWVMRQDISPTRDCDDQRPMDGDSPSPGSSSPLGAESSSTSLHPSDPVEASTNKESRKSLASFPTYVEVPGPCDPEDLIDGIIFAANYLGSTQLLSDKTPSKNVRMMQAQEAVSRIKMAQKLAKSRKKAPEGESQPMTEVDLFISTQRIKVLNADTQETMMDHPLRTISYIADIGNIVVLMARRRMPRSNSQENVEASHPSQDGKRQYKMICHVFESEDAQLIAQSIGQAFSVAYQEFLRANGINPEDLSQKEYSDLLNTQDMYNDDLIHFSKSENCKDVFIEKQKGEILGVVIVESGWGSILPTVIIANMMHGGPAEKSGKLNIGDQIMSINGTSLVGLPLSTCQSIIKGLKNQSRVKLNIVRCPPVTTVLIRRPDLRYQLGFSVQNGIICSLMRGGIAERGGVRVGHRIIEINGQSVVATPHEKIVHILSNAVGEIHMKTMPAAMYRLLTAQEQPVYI
Excerpt: (§1) Each page of TABLE 7 and 12 includes seven columns. The columns in each table are numbered from left to right such that the left-most column in each table is column 1 and the right-most column in each table is column 7. Thus, the first column in each table is labeled “AVC ID”; this column simply lists an internal reference number used to refer to the carboxyl-terminal amino acids of the PL proteins listed in the second column. […] All PL peptides were biotinylated at the amino-terminus and the sequences of these PL peptides are presented in TABLE 8 (see end of specification).
(§2) This column provides the gene name for the PDZ portion of the GST-PDZ fusion that interacts with the PDZ-ligand to the left. For PDZ domain-containing proteins with multiple domains, the domain number is listed to the right of the PDZ (i.e., in column 5 labeled “PDZ Domain”), and indicates the PDZ domain number when numbered from the amino-terminus to the carboxy-terminus.
(§3) The third column labeled “Peptide Optimal Concentration” in the tables is a number reflective of the binding interaction between the PL protein and PDZ protein. […] The column labeled “Protein Optimal Concentration” refers to the protein concentration used to assay PL interaction (in ug/ml); a ‘0’ is indicative of 5 ug/ml protein concentration; any other value represents the concentration (in ug/ml) used to determine the dissociation constant for a given interaction.
(§4) Finally, the seventh column labeled “Classification” is another measure of the level of binding. In particular, it provides an absorbance value at 450 nm which indicates the amount of PL peptide bound to the PDZ protein. The following numerical values have the following meanings: ‘1’—A450 nm 0-1; ‘2’—A450 nm 1-2; ‘3’—A450 nm 2-3; ‘4’—A450 nm 3-4; ‘5’—A450 nm of 4 more than 2× repeated; ‘0’—A450 nm 0, i.e., not found to interact. Thus, higher numbers indicate stronger interactions.
(§5) For convenience, the assay conditions described in this section are referred to as the “G′ assay” and the “G″ assay,” with the specific conditions described in the preceding section on G assays being referred to as the “G^0 assay.” The “G′ assay” is identical to the “G^0 assay” except at step (2) the peptide concentration is 10 uM instead of 20 uM.

[2] = target: T2, PDZ protein (GST-PDZ fusion) (Homo sapiens, UniProt Q6P0Q8)
T2 construct: made in house; host or cells: E. coli (DH5alpha, BL21 or JM109)
T2 sequence (Q6P0Q8 whole entry, the tested form may be a part): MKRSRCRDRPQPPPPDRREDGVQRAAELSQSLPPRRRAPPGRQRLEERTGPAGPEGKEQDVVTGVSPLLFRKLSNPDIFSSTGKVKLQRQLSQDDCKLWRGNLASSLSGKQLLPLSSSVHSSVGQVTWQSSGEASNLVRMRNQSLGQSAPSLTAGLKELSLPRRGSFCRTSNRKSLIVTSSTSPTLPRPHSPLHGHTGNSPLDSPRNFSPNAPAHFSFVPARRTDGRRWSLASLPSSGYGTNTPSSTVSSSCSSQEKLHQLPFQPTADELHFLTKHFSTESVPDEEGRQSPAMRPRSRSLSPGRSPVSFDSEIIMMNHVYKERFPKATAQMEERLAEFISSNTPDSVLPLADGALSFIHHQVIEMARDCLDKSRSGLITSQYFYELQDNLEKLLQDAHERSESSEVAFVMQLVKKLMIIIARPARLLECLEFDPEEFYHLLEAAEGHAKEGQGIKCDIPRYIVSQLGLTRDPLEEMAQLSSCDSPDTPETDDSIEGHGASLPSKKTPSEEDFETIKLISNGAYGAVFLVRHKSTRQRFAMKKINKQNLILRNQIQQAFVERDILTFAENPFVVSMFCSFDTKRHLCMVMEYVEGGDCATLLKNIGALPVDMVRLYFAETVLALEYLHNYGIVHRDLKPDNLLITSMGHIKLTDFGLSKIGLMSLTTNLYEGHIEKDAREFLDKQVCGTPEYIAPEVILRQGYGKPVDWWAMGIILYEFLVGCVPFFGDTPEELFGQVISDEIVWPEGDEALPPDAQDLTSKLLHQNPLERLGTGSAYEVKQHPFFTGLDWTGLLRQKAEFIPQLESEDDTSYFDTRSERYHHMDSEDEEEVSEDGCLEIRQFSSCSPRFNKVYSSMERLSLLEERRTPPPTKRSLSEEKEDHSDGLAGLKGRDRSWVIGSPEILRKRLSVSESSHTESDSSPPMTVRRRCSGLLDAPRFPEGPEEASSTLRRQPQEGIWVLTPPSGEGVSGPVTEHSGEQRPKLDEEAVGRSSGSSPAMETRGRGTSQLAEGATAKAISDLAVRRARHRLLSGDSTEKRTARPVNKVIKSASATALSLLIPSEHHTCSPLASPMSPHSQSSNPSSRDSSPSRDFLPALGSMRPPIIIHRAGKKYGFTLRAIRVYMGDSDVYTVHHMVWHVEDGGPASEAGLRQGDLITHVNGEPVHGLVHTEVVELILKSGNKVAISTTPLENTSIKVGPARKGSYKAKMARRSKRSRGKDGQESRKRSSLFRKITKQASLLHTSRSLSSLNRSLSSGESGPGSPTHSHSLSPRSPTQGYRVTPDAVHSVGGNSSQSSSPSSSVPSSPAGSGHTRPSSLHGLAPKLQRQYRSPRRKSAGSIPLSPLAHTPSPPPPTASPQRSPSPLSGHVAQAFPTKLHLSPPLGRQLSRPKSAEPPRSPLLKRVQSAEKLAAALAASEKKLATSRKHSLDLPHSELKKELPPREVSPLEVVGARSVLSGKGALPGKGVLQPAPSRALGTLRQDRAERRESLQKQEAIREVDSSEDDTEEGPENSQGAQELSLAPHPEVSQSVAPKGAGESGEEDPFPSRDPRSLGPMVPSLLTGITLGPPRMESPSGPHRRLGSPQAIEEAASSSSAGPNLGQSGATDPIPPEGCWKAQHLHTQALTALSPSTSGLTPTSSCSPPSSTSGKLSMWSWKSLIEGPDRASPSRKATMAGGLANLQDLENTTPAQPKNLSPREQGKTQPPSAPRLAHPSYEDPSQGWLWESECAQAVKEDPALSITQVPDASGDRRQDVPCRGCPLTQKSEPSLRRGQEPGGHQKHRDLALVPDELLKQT
Excerpt: as §1, §2, §3, §4, §5

[3] = test system: PDZ protein (GST-PDZ fusion)
Excerpt: as §1, §2, §3, §4, §5

[4] = target: T3, PDZ protein (GST-PDZ fusion) (Homo sapiens, UniProt Q12959); conditions: PDZ DLG1, PDZ Domain 1, 2
T3 construct: made in house; host or cells: E. coli (DH5alpha, BL21 or JM109)
T3 sequence (Q12959 whole entry, the tested form may be a part): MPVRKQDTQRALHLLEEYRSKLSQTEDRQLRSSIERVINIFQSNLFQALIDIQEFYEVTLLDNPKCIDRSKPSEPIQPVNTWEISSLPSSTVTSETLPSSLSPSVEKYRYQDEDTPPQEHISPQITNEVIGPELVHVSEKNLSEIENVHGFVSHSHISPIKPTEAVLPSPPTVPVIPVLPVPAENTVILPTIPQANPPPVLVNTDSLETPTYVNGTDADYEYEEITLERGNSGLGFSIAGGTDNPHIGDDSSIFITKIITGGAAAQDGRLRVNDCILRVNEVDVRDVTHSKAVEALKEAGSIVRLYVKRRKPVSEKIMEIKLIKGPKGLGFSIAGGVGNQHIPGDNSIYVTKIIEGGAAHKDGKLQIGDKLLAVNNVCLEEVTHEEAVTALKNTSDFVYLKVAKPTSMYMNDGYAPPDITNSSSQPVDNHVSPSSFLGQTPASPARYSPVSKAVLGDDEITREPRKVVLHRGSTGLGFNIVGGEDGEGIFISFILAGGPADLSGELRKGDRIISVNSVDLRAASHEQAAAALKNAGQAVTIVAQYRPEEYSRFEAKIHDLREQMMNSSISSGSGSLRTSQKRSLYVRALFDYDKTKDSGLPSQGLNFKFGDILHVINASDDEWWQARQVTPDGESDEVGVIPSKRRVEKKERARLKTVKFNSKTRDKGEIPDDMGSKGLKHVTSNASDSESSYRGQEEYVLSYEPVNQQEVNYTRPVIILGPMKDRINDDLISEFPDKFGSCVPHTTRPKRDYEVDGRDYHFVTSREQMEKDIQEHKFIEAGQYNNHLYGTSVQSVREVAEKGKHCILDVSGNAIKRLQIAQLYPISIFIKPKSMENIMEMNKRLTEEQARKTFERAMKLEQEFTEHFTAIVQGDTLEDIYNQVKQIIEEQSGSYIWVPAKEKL
Excerpt: as §1, §2, §3, §4, §5

[5] = target: T4, PDZ protein (GST-PDZ fusion) (Homo sapiens, UniProt Q5TCQ9)
T4 construct: made in house; host or cells: E. coli (DH5alpha, BL21 or JM109)
T4 sequence (Q5TCQ9 1-1481): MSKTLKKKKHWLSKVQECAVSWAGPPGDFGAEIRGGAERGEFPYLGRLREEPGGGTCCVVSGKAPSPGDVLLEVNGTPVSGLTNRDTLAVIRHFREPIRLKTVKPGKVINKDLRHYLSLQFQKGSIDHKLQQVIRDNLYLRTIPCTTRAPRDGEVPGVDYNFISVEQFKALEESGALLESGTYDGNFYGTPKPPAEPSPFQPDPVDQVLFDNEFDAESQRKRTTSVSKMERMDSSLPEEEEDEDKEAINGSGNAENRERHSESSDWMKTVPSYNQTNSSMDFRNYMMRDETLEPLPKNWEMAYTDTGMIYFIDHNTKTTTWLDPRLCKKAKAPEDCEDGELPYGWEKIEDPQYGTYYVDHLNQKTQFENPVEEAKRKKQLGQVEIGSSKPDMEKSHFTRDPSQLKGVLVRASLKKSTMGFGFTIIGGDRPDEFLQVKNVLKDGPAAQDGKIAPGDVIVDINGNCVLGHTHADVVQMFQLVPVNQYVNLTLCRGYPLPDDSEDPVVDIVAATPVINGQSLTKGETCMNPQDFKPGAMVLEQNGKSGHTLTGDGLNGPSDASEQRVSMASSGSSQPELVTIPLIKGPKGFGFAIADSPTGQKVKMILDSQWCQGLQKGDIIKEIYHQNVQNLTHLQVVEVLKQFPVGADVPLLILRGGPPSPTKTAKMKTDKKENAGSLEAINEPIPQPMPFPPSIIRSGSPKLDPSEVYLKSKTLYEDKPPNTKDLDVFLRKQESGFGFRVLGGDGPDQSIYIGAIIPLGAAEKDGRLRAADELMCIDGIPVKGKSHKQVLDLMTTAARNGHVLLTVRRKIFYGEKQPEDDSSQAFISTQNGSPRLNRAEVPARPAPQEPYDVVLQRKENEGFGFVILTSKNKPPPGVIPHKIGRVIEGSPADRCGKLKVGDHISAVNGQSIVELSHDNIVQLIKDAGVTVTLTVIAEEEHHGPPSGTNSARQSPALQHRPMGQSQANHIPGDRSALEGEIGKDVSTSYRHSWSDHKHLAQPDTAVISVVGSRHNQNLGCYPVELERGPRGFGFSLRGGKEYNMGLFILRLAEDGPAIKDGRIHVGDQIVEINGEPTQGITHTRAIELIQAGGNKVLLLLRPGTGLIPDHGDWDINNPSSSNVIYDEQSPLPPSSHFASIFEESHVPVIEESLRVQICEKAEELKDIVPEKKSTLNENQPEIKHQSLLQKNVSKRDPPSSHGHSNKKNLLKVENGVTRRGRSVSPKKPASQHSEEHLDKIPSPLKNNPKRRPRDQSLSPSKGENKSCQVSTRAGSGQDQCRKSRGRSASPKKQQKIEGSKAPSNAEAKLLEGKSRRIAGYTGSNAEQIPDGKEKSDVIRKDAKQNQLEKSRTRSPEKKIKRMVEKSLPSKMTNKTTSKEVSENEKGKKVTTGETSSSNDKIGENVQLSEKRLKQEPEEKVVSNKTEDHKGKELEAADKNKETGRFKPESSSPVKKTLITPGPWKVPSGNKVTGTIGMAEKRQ
Excerpt: as §1, §2, §3, §4, §5

[6] = target: T5, PDZ protein (GST-PDZ fusion) (Homo sapiens, UniProt O75970)
T5 construct: made in house; host or cells: E. coli (DH5alpha, BL21 or JM109)
T5 sequence (O75970 whole entry, the tested form may be a part): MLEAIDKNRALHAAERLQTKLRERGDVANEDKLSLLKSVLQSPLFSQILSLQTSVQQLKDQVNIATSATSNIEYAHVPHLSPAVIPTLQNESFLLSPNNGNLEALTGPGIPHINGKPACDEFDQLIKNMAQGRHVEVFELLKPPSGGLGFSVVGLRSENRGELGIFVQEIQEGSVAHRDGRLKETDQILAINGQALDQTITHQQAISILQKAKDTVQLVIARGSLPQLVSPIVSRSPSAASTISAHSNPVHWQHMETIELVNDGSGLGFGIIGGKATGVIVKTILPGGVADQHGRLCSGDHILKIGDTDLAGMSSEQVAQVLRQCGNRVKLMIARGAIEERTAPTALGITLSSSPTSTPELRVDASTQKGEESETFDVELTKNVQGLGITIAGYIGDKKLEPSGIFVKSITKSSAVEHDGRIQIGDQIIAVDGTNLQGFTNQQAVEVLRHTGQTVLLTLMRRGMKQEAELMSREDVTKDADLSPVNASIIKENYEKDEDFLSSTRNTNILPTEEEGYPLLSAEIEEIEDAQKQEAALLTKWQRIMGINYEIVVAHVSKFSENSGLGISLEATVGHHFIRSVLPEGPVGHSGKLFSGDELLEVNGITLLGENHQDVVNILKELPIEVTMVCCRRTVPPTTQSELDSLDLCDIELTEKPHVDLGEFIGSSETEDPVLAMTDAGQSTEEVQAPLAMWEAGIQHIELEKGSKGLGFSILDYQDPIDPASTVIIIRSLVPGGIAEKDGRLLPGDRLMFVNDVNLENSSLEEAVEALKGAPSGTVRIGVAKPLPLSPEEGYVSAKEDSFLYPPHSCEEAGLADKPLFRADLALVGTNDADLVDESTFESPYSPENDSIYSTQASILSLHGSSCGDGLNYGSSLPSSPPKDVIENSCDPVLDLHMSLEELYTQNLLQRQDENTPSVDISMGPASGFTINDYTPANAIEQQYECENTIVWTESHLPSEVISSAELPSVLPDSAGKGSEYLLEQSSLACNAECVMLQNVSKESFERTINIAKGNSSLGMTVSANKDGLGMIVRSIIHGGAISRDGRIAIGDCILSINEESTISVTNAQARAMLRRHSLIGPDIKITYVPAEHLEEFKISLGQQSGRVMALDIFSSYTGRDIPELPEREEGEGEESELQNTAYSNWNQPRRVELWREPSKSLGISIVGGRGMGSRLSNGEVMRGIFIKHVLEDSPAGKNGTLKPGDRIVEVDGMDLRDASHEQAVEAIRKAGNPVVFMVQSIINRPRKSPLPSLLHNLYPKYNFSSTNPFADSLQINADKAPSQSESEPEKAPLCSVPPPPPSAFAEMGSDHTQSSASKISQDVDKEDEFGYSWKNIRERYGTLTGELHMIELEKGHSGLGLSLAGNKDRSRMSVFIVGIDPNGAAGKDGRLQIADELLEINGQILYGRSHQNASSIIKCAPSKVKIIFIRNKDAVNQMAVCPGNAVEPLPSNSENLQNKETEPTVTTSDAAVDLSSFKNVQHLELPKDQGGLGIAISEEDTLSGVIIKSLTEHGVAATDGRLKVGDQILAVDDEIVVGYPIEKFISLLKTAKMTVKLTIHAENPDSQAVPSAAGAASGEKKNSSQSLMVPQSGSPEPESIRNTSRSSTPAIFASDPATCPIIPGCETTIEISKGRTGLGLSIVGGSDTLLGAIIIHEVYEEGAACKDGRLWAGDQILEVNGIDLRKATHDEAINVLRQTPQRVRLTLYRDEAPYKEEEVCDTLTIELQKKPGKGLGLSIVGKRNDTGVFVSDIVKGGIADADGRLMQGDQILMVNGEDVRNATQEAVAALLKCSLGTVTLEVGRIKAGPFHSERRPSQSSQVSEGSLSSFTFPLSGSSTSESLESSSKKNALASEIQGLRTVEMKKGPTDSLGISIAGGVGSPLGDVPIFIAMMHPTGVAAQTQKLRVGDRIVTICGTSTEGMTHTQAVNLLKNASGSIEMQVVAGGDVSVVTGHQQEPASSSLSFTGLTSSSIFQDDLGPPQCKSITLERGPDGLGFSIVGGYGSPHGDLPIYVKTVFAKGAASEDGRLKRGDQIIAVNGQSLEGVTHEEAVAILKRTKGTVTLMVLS
Excerpt: as §1, §2, §3, §4, §5

[7] = target: T6, PDZ protein (GST-PDZ fusion) (Homo sapiens, UniProt Q12923)
T6 construct: made in house; host or cells: E. coli (DH5alpha, BL21 or JM109)
Excerpt: as §1, §2, §3, §4, §5

[8] = target: T7, PDZ protein (GST-PDZ fusion) (Homo sapiens, UniProt Q14160); conditions: PDZ KIAA0147, PDZ Domain 1
T7 construct: made in house; host or cells: E. coli (DH5alpha, BL21 or JM109)
Excerpt: as §1, §2, §3, §4, §5

## DGGARTEDEVQSYPSKHDYV (Biotin-DGGARTEDEVQSYPSKHDYV) [claudin 18]
[1]
  Classification: 1 (A450 nm 0-1)

## KPQIAALKEETEEEVQDTRL (Biotin-KPQIAALKEETEEEVQDTRL)
[2]; PDZ KIAA0807(S), PDZ Domain 1
  Classification: 2 (A450 nm 1-2)
[2]; PDZ KIAA807, PDZ Domain not given
  Classification: 1 (A450 nm 0-1)
[3]; PDZ SHANK, PDZ Domain 1
  Classification: 1 (A450 nm 0-1)

## GGEDFKTTNPSKQFDKNAYV (Biotin-GGEDFKTTNPSKQFDKNAYV) [claudin 10]
[4]
  Classification: 1 (A450 nm 0-1)
[5]; PDZ KIAA1634, PDZ Domain 1
  Classification: 1 (A450 nm 0-1)

## TALRIKKTLAKMVESQDVKI (Biotin-TALRIKKTLAKMVESQDVKI) [bone morphogenetic protein receptor]
[6]; PDZ MUPP-1, PDZ Domain 3
  Classification: 1 (A450 nm 0-1)
[6]; PDZ MUPP-1, PDZ Domain 7
  Classification: 1 (A450 nm 0-1)
[6]; PDZ MUPP-1, PDZ Domain 9
  Classification: 1 (A450 nm 0-1)
[2]; PDZ KIAA0807(S), PDZ Domain 1
  Classification: 1 (A450 nm 0-1)

## PGQPPKVKSEFNSYSLTGYV (Biotin-PGQPPKVKSEFNSYSLTGYV) [claudin 2]
[1]
  Classification: 2 (A450 nm 1-2)
[5]; PDZ KIAA1634, PDZ Domain 1
  Classification: 1 (A450 nm 0-1)
[2]; PDZ KIAA807
  Classification: 1 (A450 nm 0-1)
[3]; PDZ BAI-1, PDZ Domain 3
  Classification: 1 (A450 nm 0-1)

## PVYIVQEMPPQSPANIYYKV (Biotin-PVYIVQEMPPQSPANIYYKV) [ephrin B1]
[6]; PDZ MUPP-1, PDZ Domain 3
  Classification: 1 (A450 nm 0-1)
[6]; PDZ MUPP-1, PDZ Domain 7
  Classification: 1 (A450 nm 0-1)
[6]; PDZ MUPP-1, PDZ Domain 9
  Classification: 1 (A450 nm 0-1)
[7]; PDZ PTPL-1, PDZ Domain 4
  Classification: 2 (A450 nm 1-2)
[2]; PDZ KIAA0807(S), PDZ Domain 1
  Classification: 1 (A450 nm 0-1)
[2]; PDZ KIAA807 (domain not given)
  Classification: 1 (A450 nm 0-1)

## C5AR_HUMAN (Biotin-ESKSFTRSTVDTMAQKTQAV)
[7]; PDZ PTPL-1, PDZ Domain 4
  Classification: 1 (A450 nm 0-1)

## PYQSQGFSTEEDEDEQVSAV (Biotin-PYQSQGFSTEEDEDEQVSAV) [RA-GEF (ras/rap1A-assoc-GEF)]
[7]; PDZ PTPL-1, PDZ Domain 2
  Classification: 4 (A450 nm 3-4)
[8]
  Classification: 1 (A450 nm 0-1)
[5]; PDZ KIAA1634, PDZ Domain 2
  Classification: 2 (A450 nm 1-2)
